molecular target: HLA-A*02:01 (Homo sapiens, UniProt P04439, D140Y/D185E/D98H/E176V/E277Q/G131W/G231S/I119V/I121R/I166T/I218V/L300P/L318F/N151K/N90K/P208A/P217A/Q86G/Q94H/R138H/R169H/T345S); test: MHC binding assay (UV-ligand exchange, β2m ELISA, peptide exchange yield); conditions: binding to HLA-A*02:01
In short: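 Peptide-HLA-A*02:01 complexes formed by UV-mediated exchange of a photocleavable ligand; exchange yield measured by streptavidin-capture ELISA detecting β2m with HRP anti-β2m, TMB read at 450 nm. Refolded monomer standards 15-500 ng/ml; samples diluted 100-fold.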

Substance | Peptide Exchange (MHC class I binding score, peptide exchange yield)
134 (MLLEHGITLV; listed as Homo sapiens) [compound 134] | “++++” (>75% = ++++)
29 (AVLQAVTAV; listed as Homo sapiens) [compound 29] | “+++” (>50 = +++)
15 (ALPEVSVEA; listed as Homo sapiens) [compound 15] | “+++” (>50 = +++)
27 (AVLGLVWLL; listed as Homo sapiens) [compound 27] | “+++” (>50 = +++)
20 (ALVDPGPDFVV; listed as Homo sapiens) [compound 20] | “+++” (>50 = +++)
149 (SLDNGGYYI; listed as Homo sapiens) [compound 149] | “+++” (>50 = +++)
147 (SILETVATL; listed as Homo sapiens) [compound 147] | “+++” (>50 = +++)
216 (WLAGDVPAA; listed as Homo sapiens) [compound 216] | “+++” (>50 = +++)
1 (AIPPSFASIFL; listed as Homo sapiens) [compound 1] | “+++” (>50 = +++)
231 (FLYIRQLAI; listed as Homo sapiens) [compound 231] | “+++” (>50 = +++)
51 (FLVEAPHDWDL; listed as Homo sapiens) [compound 51] | “++++” (>75% = ++++)
45 (FLPELPADLEA; listed as Homo sapiens) [compound 45] | “+++” (>50 = +++)
179 (VLLGLEMTL; listed as Homo sapiens) [compound 179] | “+++” (>50 = +++)
120 (AIDAALTSV; listed as Homo sapiens) [compound 120] | “+++” (>50 = +++)
122 (LLIPVVPGV; listed as Homo sapiens) [compound 122] | “+++” (>50 = +++)
142 (QLDEPAPQV; listed as Homo sapiens) [compound 142] | “++” (>20% = ++)
118 (RLLILENILL; listed as Homo sapiens) [compound 118] | “+++” (>50 = +++)
73 (GLLEVISALQL; listed as Homo sapiens) [compound 73] | “+++” (>50 = +++)
23 (ALYLTEVFL; listed as Homo sapiens) [compound 23] | “++++” (>75% = ++++)
195 (YLGGFALSV; listed as Homo sapiens) [compound 195] | “++++” (>75% = ++++)
208 (ILLKTEGINL; listed as Homo sapiens) [compound 208] | “+++” (>50 = +++)
202 (YVDDVFLRV; listed as Homo sapiens) [compound 202] | “++++” (>75% = ++++)

Substance | Peptide Exchange (MHC class I binding score, peptide exchange yield)
162 (SMKDDLENV; listed as Homo sapiens) [compound 162] | “++” (>20% = ++)
218 (ALGEEWKGYVV; listed as Homo sapiens) [compound 218] | “++” (>20% = ++)
72 (GLLDAGKMYV; listed as Homo sapiens) [compound 72] | “+++” (>50 = +++)
115 (LLFDKLYLL; listed as Homo sapiens) [compound 115] | “+++” (>50 = +++)
78 (GLPSFLTEV; listed as Homo sapiens) [compound 78] | “+++” (>50 = +++)
127 (LLPTAPTTV; listed as Homo sapiens) [compound 127] | “+++” (>50 = +++)
178 (VLFFNVQEV; listed as Homo sapiens) [compound 178] | “+++” (>50 = +++)
235 (GLDDLLLFL; listed as Homo sapiens) [compound 235] | “+++” (>50 = +++)
109 (KLWEGLTELV; listed as Homo sapiens) [compound 109] | “+++” (>50 = +++)
63 (SLAHVAGCEL; listed as Homo sapiens) [compound 63] | “+++” (>50 = +++)
19 (QVMEKLAAV; listed as Homo sapiens) [compound 19] | “+++” (>50 = +++)
47 (FLSDQPEPYL; listed as Homo sapiens) [compound 47] | “++” (>20% = ++)
108 (VIYTLIHYI; listed as Homo sapiens) [compound 108] | “+++” (>50 = +++)
233 (GIIDINVRL; listed as Homo sapiens) [compound 233] | “++” (>20% = ++)
221 (ALVSTIIMV; listed as Homo sapiens) [compound 221] | “+” (>10% = +)
44 (FLLSINDFL; listed as Homo sapiens) [compound 44] | “+++” (>50 = +++)
9 (ALCDTLITV; listed as Homo sapiens) [compound 9] | “+++” (>50 = +++)
237 (GLQENLDVVV; listed as Homo sapiens) [compound 237] | “++++” (>75% = ++++)
223 (ALWVSQPPEI; listed as Homo sapiens) [compound 223] | “+++” (>50 = +++)
104 (KLILLDTPLFL; listed as Homo sapiens) [compound 104] | “+++” (>50 = +++)
225 (ILQERELLPV; listed as Homo sapiens) [compound 225] | “+++” (>50 = +++)
224 (AMEALVVEV; listed as Homo sapiens) [compound 224] | “+++” (>50 = +++)

Now from value to substance:

Peptide Exchange (MHC class I binding score, peptide exchange yield) | Substance
“+++” (>50 = +++) | 357 (FLIQEIKTL; listed as Homo sapiens) [compound 357]
“+++” (>50 = +++) | 379 (YLAELVTPIL; listed as Homo sapiens) [compound 379]
“++++” (>75% = ++++) | 245 (KIMDYSLLLGV; listed as Homo sapiens) [compound 245]
“+++” (>50 = +++) | 242 (ILLGIQELL; listed as Homo sapiens) [compound 242]
“+++” (>50 = +++) | 253 (NLWSVDGEVTV; listed as Homo sapiens) [compound 253]
“+++” (>50 = +++) | 272 (VLDELPPLI; listed as Homo sapiens) [compound 272]
“+++” (>50 = +++) | 256 (QLLPVSNVVSV; listed as Homo sapiens) [compound 256]
“+++” (>50 = +++) | 318 (NLQVTQPTV; listed as Homo sapiens) [compound 318]
“+++” (>50 = +++) | 360 (HLIDTNKIQL; listed as Homo sapiens) [compound 360]
“+++” (>50 = +++) | 381 (YLLEENKIKL; listed as Homo sapiens) [compound 381]
“+++” (>50 = +++) | 375 (VLWFKPVEL; listed as Homo sapiens) [compound 375]
“+++” (>50 = +++) | 311 (LLVDVEPKV; listed as Homo sapiens) [compound 311]
“+++” (>50 = +++) | 371 (SLADDSVLERL; listed as Homo sapiens) [compound 371]
“+++” (>50 = +++) | 310 (LLSTLHLLV; listed as Homo sapiens) [compound 310]
“+++” (>50 = +++) | 303 (ILSQPTPSL; listed as Homo sapiens) [compound 303]
“+++” (>50 = +++) | 270 (TVLPVPPLSV; listed as Homo sapiens) [compound 270]
“+” (>10% = +) | 304 (LAIVPVNTL; listed as Homo sapiens) [compound 304]
“+++” (>50 = +++) | 372 (SLFGPLPGPGPALV; listed as Homo sapiens) [compound 372]
“++++” (>75% = ++++) | 338 (FLDMTNWNL; listed as Homo sapiens) [compound 338]
“++” (>20% = ++) | 246 (KLDETGVAL; listed as Homo sapiens) [compound 246]
“+++” (>50 = +++) | 319 (QVIPQLQTV; listed as Homo sapiens) [compound 319]
“+++” (>50 = +++) | 385 (YTIPLAIKL; listed as Homo sapiens) [compound 385]
“+++” (>50 = +++) | 354 (FIMDDPAGNSYL; listed as Homo sapiens) [compound 354]

Reference: patent publication US11260115B1, “Peptides and combination of peptides for use in immunotherapy against CLL and other cancers” (immatics biotechnologies GmbH, priority 2015, dated 2022)
